Experimental data reported in the DeepSol protein solubility set.

assay: soluble on expression in E. coli; label from the status in PepcDB or PDB records

Sequence	soluble on expression in E. coli
VSPKTYKDADFYVAPTQQDVNYDLVDDFGANGNDTSDDSNALQRAINAISRKPNGGTLLIPNGTYHFLGIQMKSNVHIRVESDVIIKPTWNGDGKNHRLFEVGVNNIVRNFSFQGLGNGFLVDFKDSRDKNLAVFKLGDVRNYKISNFTIDDNKTIFASILVDVTERNGRLHWSRNGIIERIKQNNALFGYGLIQTYGADNILFRNLHSEGGIALRMETDNLLMKNYKQGGIRNIFADNIRCSKGLAAVMFGPHFMKNGDVQVTNVSSVSCGSAVRSDSGFVELFSPTDEVHTRQSWKQAVESKLGRGCAQTPYARGNGGTRWAARVTQKDACLDKAKLEYGIEPGSFGTVKVFDVTARFGYNADLKQDQLDYFSTSNPMCKRVCLPTKEQWSKQGQIYIGPSLAAVIDTTPETSKYDYDVKTFNVKRINFPVNSHKTIDTNTESSRVCNYYGMSECSSSRWER	soluble
GAMGMKVDVGPDPSLVYRPDVDPEMAKSKDSFRNYTSGPLLDRVFTTYKLMHTHQTVDFVSRKRIQYGSFSYKKMTIMEAVGMLDDLVDESDPDVDFPNSFHAFQTAEGIRKAHPDKDWFHLVGLLHDLGKIMALWGEPQWAVVGDTFPVGCRPQASVVFCDSTFQDNPDLQDPRYSTELGMYQPHCGLENVLMSWGHDEYLYQMMKFNKFSLPSEAFYMIRFHSFYPWHTGGDYRQLCSQQDLDMLPWVQEFNKFDLYTKCPDLPDVESLRPYYQGLIDKYCPGTLSW	soluble
GSHGGIEGVKGAASGVVGELARARLALDERGQKLSDLEERTAAMMSSADSFSKHAHEMMLKYK	soluble
MRGSHHHHHHGIRMRARYPAFSVNYDSSFGGYSIHDYLGQWASTFGDVNHTNGNVTDANSGGFYGGSLSGSQYAISSTANQVTAFVAGGNLTYTLFNEPAHTLYGQLDSLSFGDGLSGGDTSPYSIQVPDVSFGGLNLSSLQAQGHDGVVHQVVYGLMSGDTGALETALNGILDDYGLSVNSTFDQVAAATAVGVQHADSPELLAA	soluble
RHLCESRQQAQRWIRAGAVHVNHIPIDKPGTLVAVDATIQVKAKPAYVSRGGEKLAHALGVFPVVVRDRVCLDGGISTGGFTDCLLQAGAQLVYGIDVGYGQVDWKLRQDPRLILRERTNLRYLTPADLYTDDGPRPDLGVVDVSFISLTKVLPALWELLLPPRELIALIKPQFEVGRDRLGKNGVVRDAKARQEAVDQVITAAAALGWQCYGVTPSPILGPAGNQEFLAHFCCGANGVLENEMVS	not soluble
MGSDKIHHHHHHMRIGFLSHAGASIYHFRMPIIKALKDRKDEVFVIVPQDEYTQKLRDLGLKVIVYEFSRASLNPFVVLKNFFYLAKVLKNLNLDFIQSAAHKSNTFGILAAKWAKIPYRFALVEGLGSFYIDQGFKANLVRFVINSLYKLSFKFAHQFIFVNESNAEFMRNLGLKENKICVIKSVGINLKKFFPIYVESEKKELFWKNLNIDKKPIVLMIARALWHKGVKEFYESATMLKDKANFVLVGGRDENPSCASLEFLNSGAVHYLGARSDIVELLQNCDIFVLPSYKEGFPVSVLEAKACGKAIVVSDCEGCVEAISNAYDGLWAKTKNAKDLSEKISLLLEDEKLRLNLAKNAAQDALQYDENIIAQRYLKLYDRVIKNV	not soluble
MADKIKVSLLGSTGMVGQKMVKMLAKHPYLELVKVSASPSKIGKKYKDAVKWIEQGDIPEEVQDLPIVSTNYEDHKDVDVVLSALPNELAESIELELVKNGKIVVSNASPFRMDPDVPLINPEINWEHLELLKFQKERKGWKGILVKNPNCTAAIMSMPIKPLIEIATKSKIIITTLQAVSGAGYNGISFMAIEGNIIPYIKGEEDKIAKELTKLNGKLENNQIIPANLDSTVTSIRVPTRVGHMGVINIVTNERINIEEIKKTLKNFKSLPQQKNLPTAPKQPIIVRDEEDRPQPIIDVNAESGMAVTVGRIRHENNVLRLVVLGDNLVRGAAGITILTVEVMKELGYI	soluble
MGSDKIHHHHHHMKLNRIPVVFILVLQFLSCMRKDEVLSTDPSDRLEFSEDTVFFDTLFSSVGSITKRLLVYNPGKNKIRISSVTLAGGSNSAYSVIVNGLNGPSISDIDIRGNDSIYVLVKVLIDPSNQDLPFLVSDSILFYTNTNRQKVLLSAYGQDAHFFGKESIACDAVWVNDKPYVLYDTLQVNTGCTLTIQPGCKIYFHTAAALNVRGTLIAQGSSSEPLLFASDKLSKTAQDDRGQWGGLIFQSSSSGNVISWATIRNSSTAIKLFPVIDADTIAELSLDHTFLLHASVRLIDAQEVDLAGSNLVLSDCPKALLKHTAGCGVWKHCTFANYSSGFFREETNLVLGSNMGSLKMYVLNSILWGDKSNEVTANNTPSLSLQSCIWRSAYMGTNTNVITSNPLFSKPSAFDFSLTAGSSAIDLCTGVGVPDDIAAGNRDSTPDAGAYEFK	not soluble
GPGSMVDDFSSLSSPYVFLHGPLCSKDTCAVAAIGTTARLPYARPHSLLPLTSFLALRPAVSSGGLRHTRAYTHLLDTRVQVRIAMSEAAPPPVLGTASSAVAPQPFGGSEASRKRRLKPISFQRMAMIQEEIARIDKHLEALEASESKVVDPDSVGQHNLTTEDVIDPVVLHMLTVELCQLAASGDAVGARILLTGGADPNSRDYDGRTLLHIACMNGRLSVVTVLLEFSADASLLDRDGNTPLEVAEEYGFGDVAQVLSGYFDAGANAVPDSFTWKPPSFESTPVSIHQPDFSAVP	not soluble
MTATLDDARAALDRIADPASGQGLVKAGLVQGLVVRNGRAGFMLEVPASVVASYAPVREAAEKALAALPGVEQAQVVLTAQAAEGATRVRKGAKISEDPQARMVPPPEAEKPQHVRHVIAVASGKGGVGKSTVSTNLAVAFAKMGLRVGLLDADIYGPSAPKMMGVDGDPLFENEKLQPLEAHGVKLMSIGFIVDEGKAMIWRGPMASSAVRQMIHDVAWGSEAQPLDVLVVDLPPGTGDVQLTLVQKLRIDGAVLVTTPQEIALIDARRAAAMFEKTATPILGLIENMAFFADPSTGAPIPIFGEGGGVAEAARLNVPLLGRVPIEIAVRLGGDQGVPAVIGEPKGQAAEVFIGAAKVLWKSVSHLEHHHHHH	soluble
MIEPIWIDEQVALAIHERLISLHSGASGVRDKELLKSALARPLNLLAYDQQADVIHLAAAYTAGILQNHPFVDRNKRTGFVVGVLFLELNGYRFTAAEEDSAQAVIALAAGSLDEARFKLFLADNSIPV	not soluble
GKDAHVILRSNFTLSKNKILNWEDTKKPYTYLENNGYANNVQRGFVAMGLFKDQQDVEMSPTQFGTVRPGDIKYRDINGDGKITDDDKVPLFAYSGVPQLMYGIGAEFRYKSWTLNVLFKGTGRNKFLYGGSDGRNFDGYMPFNQKDKGNIMTIAYNPENRWISAEYSGNQATENPNARFPRLYYGKNENNTKPSTFWMGDARYLRLQELSLAYNLKVPALQRILGINSMNIQLMCENLAVWDSVNIFDPEQATSCGQAYPLPARYSLQLYLNF	not soluble
GHMPAYVFSKESFLKFLEGHLEDDVVVVVSSDVTDFCKKLSESMVGEKEYCFAEFAFPADIFDADEDEIDEMMKYAIVFVEKEKLSEAGRNAIR	soluble
QYRHMIGQDAGYKAAGLYYVPIESLDQQQLPVVIEKLKALPEVEGYTLTTALPASSGQSGDNLIDPVTDRELINVADLFYVDEHYLKVYDIELLEGKNFDAATEKDREIMLSKKAATELARLMNWKDGVIGKNIILTSFGRVVIRGVYDDLMLRRQHLSPYPEKLPSAIVYGDDWLHYLTIRLRHDDARLLHRVNGILSEADPYKETSFLGVEMELLSRFEAAKTFRNT	not soluble
MGSDKIHHHHHHMGSSRKVIITCAVTGAIHTPSMSPYLPVTPDEVAQASIGAAEAGAAVIHLHARDPRDGRPTQDPAAFAEFLPRIKSNTDAVINLTTGGSPHMTVEERLRPATHYMPELASLNMGSMNFGLYPMLERFKEFAHGWEREHLERSRDLVFKNTFADIEFILKTCGGNGTRFEFECYDTSHLYNLAHFVDRKLATPPFFVQTVFGLLGGIGPHPEDLAHMRRTADRLFGADYVWSILGAGRHQIPLASIGAAQGANVRVGLEDSLWIAPGELAETNAAQVRKIRQVIEGLSLEVASPAEARTMLGLKGPQNVNF	not soluble
MSLKAPYTIGWANIYSVPTWMKQTEGTITAEVEELKKAGLVRDLMITDAQGNAQTQIQHIQSMIDANVDAIVVIAGSSNALDRVISDACDKGIAVVNFDSLVNTDKVTAKINTDSNEWGATAAKWMVSQLGGKGKIIIMNGPAGISVSDDRRKGAQPVLDANPGLQVITETNTEYNVAPAQEAMTSLLFANPEIDGVLSLGGALSAGSVLAFERQGRDQVPTTGENARQFLELWKEKGLKGWATMQPNWLGALSVYTAVQALEGKDVPAFVKVPLPVIDDSTIGSYLARADKFPADGYIYSDYDKALFDKLLATKEGHHHHHH	soluble
MRFGEGSAKPIVSAATYGVGGNAFAQAIADPVSTVHSNKPELLVVDGYNVIHCTPRYEKLVYDHSDDPYSSDVHDMARTALINDVAAFAQGRYEAVIVFDGAGNISSERPNLPARGVRIEFSPTGVSADTVVQKLCIEAREEGRACSVVSSDGTIQAVVMGKGVTRISSRMLVDEIKQIDNDVHEAEEAPQIKMTLEHHHHHH	soluble
MGSDKIHHHHHHMEAEIELKLFFPENKREALVSLLNSLPHSDAKGAIHLTNSYYDTPDLQLRRWDMGLRIRGRDGQFEQTIKTAGTVVGGVHSRPEYNIDIDQAKVNLSLFPTEIWPEGAEIGPVQDALVSLFDTDFTRMSWHIYLDESLVEVALDIGSISANGQCEPICELEFELLAGDAQALLALAERVTEQIPARLGRASKAQRGYRLAAMASPLQLDTLAFIALPKKGTPKQALVTLLETGLDRWQLLEEMLLESRQAARQLPLLGYRLRACIRLLRCTLAQFSLLDDKLLQAFDAIESQLSFVDKGLSLCELLDGDGALLSNLSEPEGLLDAVRHELAALEMPQKIDAMLNHVTYGQLQVRLVSLLMAVNAGQVYISEQQSLQAFADRLQEASWQQIVDLMPSNAELSSEDYQSFAKALDESILVGVAYGELYKHKSRDQFRAPWQDLVLGIRTLGAYHSLRQTAATQGRDIDDWLDSKEQSLLFAMEHSRRSALKVQPYWR	not soluble
MDLFRKPKKRNAPVVRKKESSSDEDQDSEVKDVIQKRRRTNPMVQSTKQLDASTRRADNSSDDSDDSDDNQDIAVATHSFAASGDAGPSGPRDQGATATLEVDTDYSHDAQAQFERVQQQLKEGVEKDGKILYKGSALYGAKEAKDTAKGNAASGYNRVGPVRAPQFLRQTVRWDFAPDICKDYKETGFCTFGDSCKFVHDRSDYKHGWEIDEEYEAGKYGAEDDANYEIHEGDDTFPEDCFICGNPFVDPIVTKCKHYFCTGCALKSFQKSSKCPICQQNTENIMNTAKELLTYLKRKKQQQKQEAEKQEEEKDSDDDEKPHECDDHHHHDHEDEPEEPENDSNVPEAEEKSDEEQEIMMEDVEGLEGGENDSESDDDDAEKD	soluble
MIDTFERTGPLMEASSYPAWAQQLINDCSPAKARVVEHELYQQMRDAKLSPQIMRQYLIGGWPVVEQFAVYMAKNLTKTRFGRHPGEDMARRWLMRNIRVELNHADYWVNWCAAHDVTLEDLHDQRVAPELHALSHWCWQTSSSDSLAVAMAATNYAIEGATGEWSAVVCSTGVYAEAFAEETRKKSMKWLKMHAQYDDAHPWEALEIICTLVGNKPSLQLQAELRQAVTKSYDYMYLFLERCIQLDKVKSPRGRVAALEM	soluble
